Test results reported in the supplement of paper PMC10065799, “High-throughput profiling of sequence recognition by tyrosine kinases and SH2 domains using bacterial peptide display” (eLife, 2023).

What was measured:
AncSZ = experiment: phosphorylation enrichment, bacterial display (enrichment ratio); higher = better substrate or ligand; peptides without Tyr show the background
EPHB1 = EPHB1 (UniProt P54762); experiment: as above
EPHB2 = EPHB2 (UniProt P29323); experiment: as above
FGFR1 = FGFR1 (UniProt P11362); experiment: as above
FGFR3 = FGFR3 (UniProt P22607); experiment: as above
Fer (mouse) = experiment: as above
Fes = Fes (UniProt P07332); experiment: as above
Fyn = Fyn (UniProt P06241); experiment: as above
Hck = Hck (UniProt P08631); experiment: as above
Jak2 = Jak2 (UniProt O60674); experiment: as above
MERTK = MERTK (UniProt Q12866); experiment: as above
c-Abl (mouse) = experiment: as above
c-Src = experiment: as above
Grb2 SH2 = Grb2 SH2 (UniProt P62993); experiment: SH2 binding enrichment of the phosphorylated peptide, bacterial display (enrichment ratio); higher = better substrate or ligand; peptides without Tyr show the background
SHP2-C SH2 = experiment: as above
c-Src SH2 = experiment: as above
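Throughout, for SH2 binding enrichment of the phosphorylated peptide, bacterial display: peptide library displayed on the E. coli surface as eCPX fusions, selected cells deep-sequenced, score is each peptide's frequency after selection divided by its frequency in the input.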
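Throughout, for phosphorylation enrichment, bacterial display: 11-residue human phosphosite peptides and single-mutation variants displayed on the E. coli surface, counted by deep sequencing, each peptide's frequency after selection divided by its frequency in the unselected input library; frequency after pTyr selection over input frequency; kinase dosed for 20-30% of maximal phosphorylation in three min.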

Sequence of Jak2 (O60674 whole entry, looked up): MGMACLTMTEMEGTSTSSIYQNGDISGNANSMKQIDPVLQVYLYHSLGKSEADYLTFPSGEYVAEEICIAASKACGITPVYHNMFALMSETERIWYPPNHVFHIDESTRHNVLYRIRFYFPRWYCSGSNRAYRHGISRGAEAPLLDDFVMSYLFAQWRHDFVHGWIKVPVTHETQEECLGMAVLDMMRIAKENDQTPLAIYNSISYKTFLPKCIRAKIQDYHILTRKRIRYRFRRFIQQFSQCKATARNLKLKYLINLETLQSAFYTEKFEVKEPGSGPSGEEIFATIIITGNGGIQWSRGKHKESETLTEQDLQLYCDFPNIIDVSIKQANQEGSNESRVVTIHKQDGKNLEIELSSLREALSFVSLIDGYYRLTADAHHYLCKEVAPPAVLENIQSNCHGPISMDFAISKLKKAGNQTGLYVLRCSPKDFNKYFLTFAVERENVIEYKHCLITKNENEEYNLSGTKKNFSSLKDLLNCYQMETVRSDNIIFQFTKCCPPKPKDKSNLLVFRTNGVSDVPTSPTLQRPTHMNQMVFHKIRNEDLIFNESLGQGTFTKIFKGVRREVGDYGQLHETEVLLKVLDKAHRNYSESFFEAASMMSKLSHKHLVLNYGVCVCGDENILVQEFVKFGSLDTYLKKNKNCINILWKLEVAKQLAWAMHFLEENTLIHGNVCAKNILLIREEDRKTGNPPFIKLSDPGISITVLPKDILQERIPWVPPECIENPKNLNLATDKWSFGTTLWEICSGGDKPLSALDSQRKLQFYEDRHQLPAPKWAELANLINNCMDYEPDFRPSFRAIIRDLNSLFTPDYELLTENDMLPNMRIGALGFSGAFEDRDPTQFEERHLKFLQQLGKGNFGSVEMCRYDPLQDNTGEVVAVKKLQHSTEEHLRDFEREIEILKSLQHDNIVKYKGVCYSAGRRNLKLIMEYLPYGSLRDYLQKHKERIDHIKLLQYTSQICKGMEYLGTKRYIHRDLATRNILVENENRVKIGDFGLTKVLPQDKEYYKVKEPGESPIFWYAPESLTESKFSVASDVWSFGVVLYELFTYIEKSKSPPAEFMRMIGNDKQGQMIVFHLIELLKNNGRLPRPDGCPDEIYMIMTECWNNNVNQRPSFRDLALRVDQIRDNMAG
Sequence of Hck (P08631 whole entry, looked up): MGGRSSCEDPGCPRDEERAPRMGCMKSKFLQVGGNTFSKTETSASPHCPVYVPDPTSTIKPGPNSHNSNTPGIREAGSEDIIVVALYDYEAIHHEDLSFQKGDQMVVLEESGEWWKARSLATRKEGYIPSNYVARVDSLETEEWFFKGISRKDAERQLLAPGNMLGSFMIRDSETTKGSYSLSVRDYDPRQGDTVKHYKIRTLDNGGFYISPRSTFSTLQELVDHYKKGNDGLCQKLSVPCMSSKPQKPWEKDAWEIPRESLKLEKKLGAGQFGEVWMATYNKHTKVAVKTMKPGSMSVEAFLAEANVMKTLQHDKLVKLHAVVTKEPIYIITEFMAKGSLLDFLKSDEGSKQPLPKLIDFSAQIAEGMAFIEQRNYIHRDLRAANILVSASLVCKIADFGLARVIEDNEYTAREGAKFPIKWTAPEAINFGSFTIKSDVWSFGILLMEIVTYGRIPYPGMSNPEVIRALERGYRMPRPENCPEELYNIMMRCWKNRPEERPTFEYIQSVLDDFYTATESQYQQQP
Sequence of FGFR3 (P22607 whole entry, looked up): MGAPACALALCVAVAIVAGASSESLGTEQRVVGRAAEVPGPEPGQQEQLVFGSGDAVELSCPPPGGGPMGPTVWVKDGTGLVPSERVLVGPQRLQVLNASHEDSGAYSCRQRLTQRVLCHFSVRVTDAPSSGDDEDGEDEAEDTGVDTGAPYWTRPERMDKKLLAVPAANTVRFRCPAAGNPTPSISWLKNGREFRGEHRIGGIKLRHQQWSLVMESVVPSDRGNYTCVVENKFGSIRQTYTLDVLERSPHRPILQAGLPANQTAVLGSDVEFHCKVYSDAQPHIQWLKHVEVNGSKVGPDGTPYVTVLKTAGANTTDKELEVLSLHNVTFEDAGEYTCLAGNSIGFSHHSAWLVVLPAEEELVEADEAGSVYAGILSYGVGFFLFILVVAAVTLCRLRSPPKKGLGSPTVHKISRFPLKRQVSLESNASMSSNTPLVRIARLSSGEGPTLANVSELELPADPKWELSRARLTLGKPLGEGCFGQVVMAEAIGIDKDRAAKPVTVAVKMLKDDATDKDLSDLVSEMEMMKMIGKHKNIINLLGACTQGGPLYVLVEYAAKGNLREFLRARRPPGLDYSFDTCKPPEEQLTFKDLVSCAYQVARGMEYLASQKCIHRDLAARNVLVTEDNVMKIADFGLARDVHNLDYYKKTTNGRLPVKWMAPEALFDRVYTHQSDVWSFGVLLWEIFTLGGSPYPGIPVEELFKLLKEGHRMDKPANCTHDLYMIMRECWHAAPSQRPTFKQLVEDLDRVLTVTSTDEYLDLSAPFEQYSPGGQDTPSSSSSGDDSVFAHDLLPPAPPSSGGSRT
Sequence of Grb2 SH2 (P62993 whole entry, looked up): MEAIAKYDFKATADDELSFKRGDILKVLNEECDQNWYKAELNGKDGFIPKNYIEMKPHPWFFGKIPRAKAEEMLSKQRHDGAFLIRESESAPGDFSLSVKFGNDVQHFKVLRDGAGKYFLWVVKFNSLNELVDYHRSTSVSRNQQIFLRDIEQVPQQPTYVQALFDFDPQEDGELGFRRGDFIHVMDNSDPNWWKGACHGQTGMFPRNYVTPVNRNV
Sequence of Fes (P07332 whole entry, looked up): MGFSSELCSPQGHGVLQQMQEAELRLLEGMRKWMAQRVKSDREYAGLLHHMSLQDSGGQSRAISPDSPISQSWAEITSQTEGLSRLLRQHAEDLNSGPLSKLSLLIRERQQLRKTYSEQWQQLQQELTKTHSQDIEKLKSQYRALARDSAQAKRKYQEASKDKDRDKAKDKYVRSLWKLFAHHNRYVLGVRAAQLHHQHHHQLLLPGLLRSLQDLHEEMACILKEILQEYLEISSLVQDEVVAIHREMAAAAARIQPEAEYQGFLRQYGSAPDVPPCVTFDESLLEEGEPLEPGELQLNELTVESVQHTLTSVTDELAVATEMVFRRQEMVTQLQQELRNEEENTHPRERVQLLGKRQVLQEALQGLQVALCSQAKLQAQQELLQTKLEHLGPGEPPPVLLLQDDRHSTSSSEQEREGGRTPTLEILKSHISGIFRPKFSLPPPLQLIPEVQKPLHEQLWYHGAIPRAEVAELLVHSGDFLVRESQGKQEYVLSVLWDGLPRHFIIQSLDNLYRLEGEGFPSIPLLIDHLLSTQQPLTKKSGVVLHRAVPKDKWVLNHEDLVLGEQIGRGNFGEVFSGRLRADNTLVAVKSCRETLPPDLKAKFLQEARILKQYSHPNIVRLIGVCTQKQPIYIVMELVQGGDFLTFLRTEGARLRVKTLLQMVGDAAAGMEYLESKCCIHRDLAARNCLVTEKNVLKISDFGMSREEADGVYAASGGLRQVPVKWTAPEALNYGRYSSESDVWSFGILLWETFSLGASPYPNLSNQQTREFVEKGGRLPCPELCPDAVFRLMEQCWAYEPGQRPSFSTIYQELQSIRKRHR
Sequence of Fyn (P06241 whole entry, looked up): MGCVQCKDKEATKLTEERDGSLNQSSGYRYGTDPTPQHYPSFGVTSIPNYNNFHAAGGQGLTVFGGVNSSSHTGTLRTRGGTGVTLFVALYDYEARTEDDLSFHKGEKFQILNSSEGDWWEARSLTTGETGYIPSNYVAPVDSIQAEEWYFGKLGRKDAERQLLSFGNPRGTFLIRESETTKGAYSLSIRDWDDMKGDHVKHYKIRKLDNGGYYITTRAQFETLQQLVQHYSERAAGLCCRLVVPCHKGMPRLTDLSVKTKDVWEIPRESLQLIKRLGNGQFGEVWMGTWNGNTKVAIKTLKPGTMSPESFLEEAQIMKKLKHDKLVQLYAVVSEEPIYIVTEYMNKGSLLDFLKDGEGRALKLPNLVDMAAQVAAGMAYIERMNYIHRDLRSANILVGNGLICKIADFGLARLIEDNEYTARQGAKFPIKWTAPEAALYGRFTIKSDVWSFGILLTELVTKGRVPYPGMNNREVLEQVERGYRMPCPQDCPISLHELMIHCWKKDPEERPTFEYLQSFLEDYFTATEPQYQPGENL
Sequence of MERTK (Q12866 whole entry, looked up): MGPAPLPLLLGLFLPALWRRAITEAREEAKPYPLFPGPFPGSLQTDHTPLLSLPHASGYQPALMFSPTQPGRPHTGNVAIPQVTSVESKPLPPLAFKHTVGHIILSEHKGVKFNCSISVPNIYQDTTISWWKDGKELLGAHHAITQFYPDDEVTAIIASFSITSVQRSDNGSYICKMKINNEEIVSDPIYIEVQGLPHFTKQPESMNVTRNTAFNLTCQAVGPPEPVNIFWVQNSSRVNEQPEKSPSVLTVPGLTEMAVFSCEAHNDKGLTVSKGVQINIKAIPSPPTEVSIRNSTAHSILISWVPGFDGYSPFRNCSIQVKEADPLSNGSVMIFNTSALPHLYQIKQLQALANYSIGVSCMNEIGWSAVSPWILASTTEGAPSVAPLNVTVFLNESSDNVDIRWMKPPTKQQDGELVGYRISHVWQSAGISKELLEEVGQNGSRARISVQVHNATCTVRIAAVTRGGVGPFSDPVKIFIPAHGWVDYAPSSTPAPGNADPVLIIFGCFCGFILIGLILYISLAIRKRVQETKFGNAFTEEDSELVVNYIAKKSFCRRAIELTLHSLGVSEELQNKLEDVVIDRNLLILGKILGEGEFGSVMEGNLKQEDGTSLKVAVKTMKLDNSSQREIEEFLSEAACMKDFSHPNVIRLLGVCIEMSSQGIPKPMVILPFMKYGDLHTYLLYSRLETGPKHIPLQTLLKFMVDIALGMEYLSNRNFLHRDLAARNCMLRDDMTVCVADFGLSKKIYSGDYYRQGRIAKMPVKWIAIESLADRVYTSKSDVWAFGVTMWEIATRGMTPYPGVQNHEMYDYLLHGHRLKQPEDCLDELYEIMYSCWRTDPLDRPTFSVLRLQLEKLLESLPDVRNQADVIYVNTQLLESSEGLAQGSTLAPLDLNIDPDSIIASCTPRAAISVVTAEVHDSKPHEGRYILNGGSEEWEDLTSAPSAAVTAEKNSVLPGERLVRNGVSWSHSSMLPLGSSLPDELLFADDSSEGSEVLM

Row | Sequence | phosphorylation enrichment (AncSZ) | phosphorylation enrichment (EPHB1) | phosphorylation enrichment (EPHB2) | phosphorylation enrichment (FGFR1) | phosphorylation enrichment (FGFR3) | phosphorylation enrichment (Fer (mouse)) | phosphorylation enrichment (Fes) | phosphorylation enrichment (Fyn) | phosphorylation enrichment (Hck) | phosphorylation enrichment (Jak2) | phosphorylation enrichment (MERTK) | phosphorylation enrichment (c-Abl (mouse)) | phosphorylation enrichment (c-Src) | SH2 binding enrichment (Grb2 SH2) | SH2 binding enrichment (SHP2-C SH2) | SH2 binding enrichment (c-Src SH2)
1 | DPLLTYQFPPK [LMNA_Y481_R482Q] | 1.25 | 0.597 | 1.27 | 1.69 | 1.17 | 0.498 | 0.773 | 1.24 | 0.986 | 0.566 | 0.796 | 0.549 | 1.54 | 1.04 | 0.657 | 0.546
2 | DRLASDLDKVR [KRT10_Y160_Y160D] | 0.603 | 0.372 | 0.471 | 0.439 | 0.469 | 0.416 | 0.661 | 0.448 | 0.425 | 0.537 | 0.362 | 0.443 | 0.363 | 0.842 | 0.681 | 0.505
3 | DRLASYLDKVP [KRT14_Y129_R134P] | 0.802 | 0.537 | 0.472 | 0.456 | 0.689 | 0.499 | 0.912 | 0.481 | 0.5 | 0.883 | 0.495 | 0.621 | 0.493 | 1.04 | 0.797 | 0.521
4 | DSDTDYGSGYP [RNASEH2A_Y206_L202S] | 1.36 | 0.708 | 0.573 | 0.647 | 0.899 | 0.646 | 1.55 | 0.677 | 0.699 | 1.43 | 0.575 | 1.01 | 0.689 | 0.688 | 0.405 | 0.442
5 | DSGKLYALDGL [INO80_Y1104_V1108G] | 0.829 | 0.723 | 0.833 | 0.581 | 0.715 | 0.719 | 1.02 | 0.763 | 0.828 | 0.912 | 2.2 | 0.699 | 1.17 | 0.92 | 0.525 | 0.567
6 | DSLASYLDKVR [KRT10_Y160_R156S] | 0.701 | 0.491 | 0.4 | 0.5 | 0.558 | 0.416 | 0.78 | 0.448 | 0.469 | 0.682 | 0.46 | 0.629 | 0.46 | 0.867 | 0.772 | 0.579
7 | DSNPIYSQIWS [FCRL3_Y662] | 1.88 | 20.2 | 21.2 | 6.65 | 5.05 | 19.4 | 14.4 | 12.1 | 12 | 1.18 | 11.8 | 14.1 | 8.52 | 1.1 | 0.89 | 0.851
8 | DTCPPYVLSQG [GJB4_Y237] | 1.12 | 0.637 | 0.417 | 0.552 | 0.77 | 0.671 | 1.32 | 0.663 | 0.507 | 1.21 | 0.439 | 1.07 | 0.637 | 0.679 | 0.589 | 0.518
9 | DTCPPYVLSQV [GJB4_Y237_G242V] | 1.01 | 0.685 | 0.635 | 0.475 | 0.776 | 1.2 | 1.11 | 0.573 | 0.606 | 0.969 | 0.432 | 0.668 | 0.606 | 0.77 | 0.797 | 0.624
10 | DTKAFYPEEIS [HSPA1A_Y115_E110D] | 1.05 | 0.456 | 0.579 | 0.482 | 0.88 | 0.479 | 1.1 | 0.441 | 0.393 | 0.933 | 0.432 | 0.752 | 0.523 | 0.927 | 0.574 | 0.445
11 | DVCKKYAEAKD [ALB_Y343_N342K] | 1.24 | 0.72 | 0.646 | 0.627 | 0.821 | 0.546 | 1.23 | 0.639 | 0.659 | 0.897 | 0.402 | 0.775 | 0.53 | 0.757 | 0.431 | 0.562
12 | DVCKNYTEAKD [ALB_Y343_A344T] | 0.92 | 0.555 | 0.581 | 0.51 | 0.613 | 0.511 | 0.963 | 0.497 | 0.494 | 0.712 | 0.5 | 0.549 | 0.385 | 0.824 | 0.674 | 0.807
13 | DWWQEYVLNES [TGM1_Y267_R264W] | 2.11 | 0.831 | 0.817 | 1.61 | 0.97 | 0.678 | 1.51 | 0.563 | 0.515 | 1.55 | 0.403 | 0.777 | 4.1 | 0.993 | 0.588 | 0.63
14 | DYLEKYYKFGC [NNMT_Y24_S29C] | 1.44 | 0.824 | 0.802 | 0.855 | 1.14 | 0.563 | 1.28 | 0.588 | 0.539 | 1.25 | 0.541 | 1.04 | 0.78 | 0.611 | 0.53 | 0.581
15 | DYYDLYGGEKK [PTPN11_Y66_F71K] | 2.84 | 6.24 | 4.52 | 15.8 | 14.1 | 0.888 | 1.17 | 4.04 | 4.06 | 2.36 | 2.72 | 0.945 | 3.65 | 1.01 | 0.665 | 0.838
16 | EALDFYGEVKT [PTEN_Y155_R159K] | 1.19 | 0.719 | 0.722 | 0.53 | 0.823 | 0.78 | 1.56 | 1.2 | 1.15 | 1.6 | 0.409 | 0.844 | 1.21 | 0.813 | 0.757 | 0.471
17 | EERKTYVNTML [TEK_Y1102_T1106M] | 0.71 | 0.385 | 0.442 | 0.428 | 0.506 | 0.42 | 0.803 | 0.44 | 0.378 | 0.637 | 0.354 | 0.55 | 0.362 | 12.9 | 0.606 | 0.661

Row | Sequence | phosphorylation enrichment (AncSZ) | phosphorylation enrichment (EPHB1) | phosphorylation enrichment (EPHB2) | phosphorylation enrichment (FGFR1) | phosphorylation enrichment (FGFR3) | phosphorylation enrichment (Fer (mouse)) | phosphorylation enrichment (Fes) | phosphorylation enrichment (Fyn) | phosphorylation enrichment (Hck) | phosphorylation enrichment (Jak2) | phosphorylation enrichment (MERTK) | phosphorylation enrichment (c-Abl (mouse)) | phosphorylation enrichment (c-Src) | SH2 binding enrichment (Grb2 SH2) | SH2 binding enrichment (SHP2-C SH2) | SH2 binding enrichment (c-Src SH2)
18 | EERNPYFSSAR [MCCC2_Y520_G517R_YF] | 0.769 | 0.466 | 0.392 | 0.486 | 0.404 | 0.36 | 0.752 | 0.475 | 0.659 | 0.779 | 0.407 | 0.624 | 1.08 | 0.859 | 0.789 | 0.446
19 | EHFSYYGMKAV [SLC15A2_Y61_R57H] | 1.01 | 0.887 | 0.818 | 8.11 | 6.68 | 0.607 | 0.765 | 1.71 | 3.42 | 9.46 | 2.35 | 0.634 | 3.38 | 0.923 | 0.816 | 0.951
20 | EITSHYRHLLR [ZBTB46_Y14] | 0.733 | 0.417 | 0.443 | 0.444 | 0.517 | 0.571 | 0.819 | 0.319 | 0.389 | 0.601 | 0.392 | 0.733 | 0.475 | 0.77 | 0.661 | 0.491
21 | EKIANYKEGTY [CLRN1_Y171] | 0.671 | 0.573 | 0.389 | 0.45 | 0.449 | 0.552 | 0.704 | 0.546 | 0.489 | 0.654 | 0.41 | 0.76 | 0.468 | 0.803 | 0.641 | 0.433
22 | EKLQKYFRKNP [EHHADH_Y682_Q685K_YF] | 0.613 | 0.693 | 0.615 | 0.473 | 0.553 | 0.514 | 0.895 | 0.527 | 0.646 | 0.991 | 0.567 | 0.763 | 0.613 | 0.914 | 0.802 | 0.549
23 | ELETLYKKAVK [CC2D2A_Y381] | 0.702 | 0.526 | 0.47 | 0.485 | 0.731 | 0.37 | 0.896 | 0.366 | 0.554 | 0.684 | 0.416 | 0.517 | 0.323 | 0.809 | 0.589 | 0.458
24 | ELTSVYGSRAR [SENP1_Y349_D350G] | 0.523 | 0.378 | 0.42 | 0.41 | 0.583 | 0.424 | 0.633 | 1.97 | 1.86 | 0.538 | 0.449 | 0.567 | 1.96 | 0.69 | 0.501 | 0.411
25 | EMTRNYIIFIE [BCO2_Y294_G289E] | 1.1 | 0.51 | 0.569 | 0.575 | 0.683 | 0.487 | 1.08 | 0.586 | 0.534 | 1.06 | 0.513 | 0.572 | 0.464 | 1.19 | 0.903 | 0.625
26 | ENAGFYFRVSA | 1.45 | 0.794 | 0.704 | 0.841 | 1.1 | 0.724 | 1.58 | 0.45 | 0.62 | 1.22 | 0.44 | 0.831 | 0.324 | 0.646 | 0.738 | 0.359
27 | ENAGYYFRISA | 1.51 | 0.797 | 0.781 | 0.527 | 0.852 | 0.523 | 1.48 | 0.488 | 0.534 | 1.36 | 0.369 | 0.764 | 0.356 | 0.661 | 0.776 | 0.6
28 | ENRLDYGSAWA [AR_Y395_P392R] | 0.773 | 0.359 | 0.453 | 0.353 | 0.503 | 0.352 | 1.25 | 0.498 | 0.311 | 0.824 | 0.364 | 0.501 | 0.435 | 0.955 | 0.735 | 0.499
29 | EPFKVYRIVPE [IRF8_Y110_YF] | 0.572 | 0.428 | 0.454 | 0.468 | 0.485 | 0.424 | 0.698 | 0.462 | 0.4 | 0.526 | 0.453 | 0.43 | 0.588 | 0.774 | 0.511 | 0.506
30 | EPVSDYINANI [PTPN11_Y304] | 0.997 | 0.433 | 0.495 | 0.454 | 0.673 | 0.412 | 0.847 | 0.447 | 0.541 | 0.799 | 0.325 | 0.603 | 0.38 | 0.819 | 0.911 | 0.466
31 | EQLRAYLEGEC [HLA-C_Y183_T187E] | 1.3 | 0.775 | 0.623 | 0.514 | 0.949 | 0.537 | 1.25 | 0.548 | 0.533 | 1.14 | 0.51 | 1.15 | 0.465 | 0.783 | 0.664 | 0.502
32 | EQLRAYLEGLC [HLA-C_Y183_T187L] | 1.34 | 0.653 | 0.673 | 0.512 | 0.843 | 0.607 | 1.58 | 0.482 | 0.73 | 1.45 | 0.615 | 1.13 | 0.618 | 0.704 | 0.66 | 0.449
33 | ERLWVYGMSSS [F8_Y1728_D1727V] | 1.17 | 0.669 | 0.612 | 0.529 | 0.729 | 0.539 | 1.61 | 0.565 | 0.574 | 1.18 | 0.395 | 0.691 | 0.556 | 0.872 | 0.688 | 0.639
